Data taken from paper PMC314469, “Protein Interaction Networks by Proteome Peptide Scanning” (PLoS Biology, 2004).

Key:
Assay in all cases: SPOT array
[1] = molecular target: T1, Boi1 SH3 (BOI1_YEAST), P38041
T1 chain: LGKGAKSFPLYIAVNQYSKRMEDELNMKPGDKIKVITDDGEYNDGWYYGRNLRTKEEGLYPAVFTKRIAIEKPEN

[2] = molecular target: T2, Yfr024 SH3 (LSB3_YEAST), P43603
T2 chain: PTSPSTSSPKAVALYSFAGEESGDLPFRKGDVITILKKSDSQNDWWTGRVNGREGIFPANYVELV

[3] = molecular target: T3, Boi2 SH3 (BOI2_YEAST), P39969
T3 chain: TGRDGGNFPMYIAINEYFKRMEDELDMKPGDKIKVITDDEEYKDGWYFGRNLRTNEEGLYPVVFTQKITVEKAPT

[4] = molecular target: Sho1 SH3 (SHO1_YEAST), P40073
Sho1 SH3 (SHO1_YEAST), P40073, sequence (P40073 295-366): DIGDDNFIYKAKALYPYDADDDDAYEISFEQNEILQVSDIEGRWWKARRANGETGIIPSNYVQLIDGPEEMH

[5] = molecular target: T4, Yhr016c SH3 (YSC84_YEAST), P32793
T4 chain: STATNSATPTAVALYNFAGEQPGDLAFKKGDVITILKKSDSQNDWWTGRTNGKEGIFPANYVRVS

[6] = molecular target: T5, Rvs167 SH3 (RV167_YEAST), P39743
T5 chain: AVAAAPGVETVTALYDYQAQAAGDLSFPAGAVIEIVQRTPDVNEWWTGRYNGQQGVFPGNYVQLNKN

[7] = molecular target: T6, Myo5 SH3 (MYO5_YEAST), Q04439
T6 chain: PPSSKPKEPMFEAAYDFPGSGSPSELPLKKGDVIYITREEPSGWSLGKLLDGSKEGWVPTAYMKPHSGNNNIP

## HISDKMNPASPQYF [YDR266C 250-263]
[1]
  normalised SPOT signal, Boehringer light units (BLU); mean over the file's lines of this peptide: 113
[2]
  normalised SPOT signal, Boehringer light units (BLU); mean over the file's lines of this peptide: 161
[3]
  normalised SPOT signal, Boehringer light units (BLU); mean over the file's lines of this peptide: 18.2
[4]
  normalised SPOT signal, Boehringer light units (BLU); mean over the file's lines of this peptide: 115
[5]
  normalised SPOT signal, Boehringer light units (BLU); mean over the file's lines of this peptide: 27.4
[6]
  normalised SPOT signal, Boehringer light units (BLU); mean over the file's lines of this peptide: 30.3
[7]
  normalised SPOT signal, Boehringer light units (BLU); mean over the file's lines of this peptide: 159

## HEASKSFPKAPQAS [YKL105C 877-890]
[1]
  normalised SPOT signal, Boehringer light units (BLU); mean over the file's lines of this peptide: 0
[2]
  normalised SPOT signal, Boehringer light units (BLU); mean over the file's lines of this peptide: 27.3
[3]
  normalised SPOT signal, Boehringer light units (BLU); mean over the file's lines of this peptide: 7.4
[4]
  normalised SPOT signal, Boehringer light units (BLU); mean over the file's lines of this peptide: 70.5
[5]
  normalised SPOT signal, Boehringer light units (BLU); mean over the file's lines of this peptide: 26.5
[6]
  normalised SPOT signal, Boehringer light units (BLU); mean over the file's lines of this peptide: 13.4
[7]
  normalised SPOT signal, Boehringer light units (BLU); mean over the file's lines of this peptide: 289

## GYNPKTVPFVPISG [YBR118W 180-193]
[1]
  normalised SPOT signal, Boehringer light units (BLU); mean over the file's lines of this peptide: 39.8
[2]
  normalised SPOT signal, Boehringer light units (BLU); mean over the file's lines of this peptide: 13.3
[3]
  normalised SPOT signal, Boehringer light units (BLU); mean over the file's lines of this peptide: 5.8
[4]
  normalised SPOT signal, Boehringer light units (BLU); mean over the file's lines of this peptide: 25
[5]
  normalised SPOT signal, Boehringer light units (BLU); mean over the file's lines of this peptide: 37.2
[6]
  normalised SPOT signal, Boehringer light units (BLU); mean over the file's lines of this peptide: 25
[7]
  normalised SPOT signal, Boehringer light units (BLU); mean over the file's lines of this peptide: 108

## HEREKALPPIPFTT [YLR425W 196-209]
[1]
  normalised SPOT signal, Boehringer light units (BLU); mean over the file's lines of this peptide: 54.9
[2]
  normalised SPOT signal, Boehringer light units (BLU); mean over the file's lines of this peptide: 158
[3]
  normalised SPOT signal, Boehringer light units (BLU); mean over the file's lines of this peptide: 1.7
[4]
  normalised SPOT signal, Boehringer light units (BLU); mean over the file's lines of this peptide: 57900
[5]
  normalised SPOT signal, Boehringer light units (BLU); mean over the file's lines of this peptide: 15.2
[6]
  normalised SPOT signal, Boehringer light units (BLU); mean over the file's lines of this peptide: 42.8
[7]
  normalised SPOT signal, Boehringer light units (BLU); mean over the file's lines of this peptide: 215

## GTVTKTAPSFPQSS [YPL075W 604-617]
[1]
  normalised SPOT signal, Boehringer light units (BLU); mean over the file's lines of this peptide: 144
[2]
  normalised SPOT signal, Boehringer light units (BLU); mean over the file's lines of this peptide: 20
[3]
  normalised SPOT signal, Boehringer light units (BLU); mean over the file's lines of this peptide: 135
[4]
  normalised SPOT signal, Boehringer light units (BLU); mean over the file's lines of this peptide: 25.5
[5]
  normalised SPOT signal, Boehringer light units (BLU); mean over the file's lines of this peptide: 45.4
[6]
  normalised SPOT signal, Boehringer light units (BLU); mean over the file's lines of this peptide: 63.6
[7]
  normalised SPOT signal, Boehringer light units (BLU); mean over the file's lines of this peptide: 261

## HLLGKEGPSAPNPS [YNL287W 476-489]
[1]
  normalised SPOT signal, Boehringer light units (BLU); mean over the file's lines of this peptide: 89
[2]
  normalised SPOT signal, Boehringer light units (BLU); mean over the file's lines of this peptide: 14.5
[3]
  normalised SPOT signal, Boehringer light units (BLU); mean over the file's lines of this peptide: 22.1
[4]
  normalised SPOT signal, Boehringer light units (BLU); mean over the file's lines of this peptide: 69.5
[5]
  normalised SPOT signal, Boehringer light units (BLU); mean over the file's lines of this peptide: 39.7
[6]
  normalised SPOT signal, Boehringer light units (BLU); mean over the file's lines of this peptide: 49.5
[7]
  normalised SPOT signal, Boehringer light units (BLU); mean over the file's lines of this peptide: 124

## HKFVKSSPVVPFDD [YOR335C 27-40]
[1]
  normalised SPOT signal, Boehringer light units (BLU); mean over the file's lines of this peptide: 247
[2]
  normalised SPOT signal, Boehringer light units (BLU); mean over the file's lines of this peptide: 122
[3]
  normalised SPOT signal, Boehringer light units (BLU); mean over the file's lines of this peptide: 7.2
[4]
  normalised SPOT signal, Boehringer light units (BLU); mean over the file's lines of this peptide: 53.1
[5]
  normalised SPOT signal, Boehringer light units (BLU); mean over the file's lines of this peptide: 40.3
[6]
  normalised SPOT signal, Boehringer light units (BLU); mean over the file's lines of this peptide: 153
[7]
  normalised SPOT signal, Boehringer light units (BLU); mean over the file's lines of this peptide: 151

## GTGRRRSPSTPIMP [YNR047W 192-205]
[1]
  normalised SPOT signal, Boehringer light units (BLU); mean over the file's lines of this peptide: 625
[2]
  normalised SPOT signal, Boehringer light units (BLU); mean over the file's lines of this peptide: 802
[3]
  normalised SPOT signal, Boehringer light units (BLU); mean over the file's lines of this peptide: 52
[4]
  normalised SPOT signal, Boehringer light units (BLU); mean over the file's lines of this peptide: 52.3
[5]
  normalised SPOT signal, Boehringer light units (BLU); mean over the file's lines of this peptide: 24
[6]
  normalised SPOT signal, Boehringer light units (BLU); mean over the file's lines of this peptide: 92.4
[7]
  normalised SPOT signal, Boehringer light units (BLU); mean over the file's lines of this peptide: 921

## GTRPKILPKIPTGA [YOR227W 1148-1161]
[1]
  normalised SPOT signal, Boehringer light units (BLU); mean over the file's lines of this peptide: 148
[2]
  normalised SPOT signal, Boehringer light units (BLU); mean over the file's lines of this peptide: 432
[3]
  normalised SPOT signal, Boehringer light units (BLU); mean over the file's lines of this peptide: 27.1
[4]
  normalised SPOT signal, Boehringer light units (BLU); mean over the file's lines of this peptide: 11800
[5]
  normalised SPOT signal, Boehringer light units (BLU); mean over the file's lines of this peptide: 31.6
[6]
  normalised SPOT signal, Boehringer light units (BLU); mean over the file's lines of this peptide: 22.1
[7]
  normalised SPOT signal, Boehringer light units (BLU); mean over the file's lines of this peptide: 773

## HILEKYSPFDPSGR [YPL148C 31-44]
[1]
  normalised SPOT signal, Boehringer light units (BLU); mean over the file's lines of this peptide: 26.1
[2]
  normalised SPOT signal, Boehringer light units (BLU); mean over the file's lines of this peptide: 82.7
[3]
  normalised SPOT signal, Boehringer light units (BLU); mean over the file's lines of this peptide: 19.3
[4]
  normalised SPOT signal, Boehringer light units (BLU); mean over the file's lines of this peptide: 89.5
[5]
  normalised SPOT signal, Boehringer light units (BLU); mean over the file's lines of this peptide: 34.1
[6]
  normalised SPOT signal, Boehringer light units (BLU); mean over the file's lines of this peptide: 15.9
[7]
  normalised SPOT signal, Boehringer light units (BLU); mean over the file's lines of this peptide: 166

## HEVPKRSPEKPSNP [YNL278W 806-819]
[1]
  normalised SPOT signal, Boehringer light units (BLU); mean over the file's lines of this peptide: 91.8
[2]
  normalised SPOT signal, Boehringer light units (BLU); mean over the file's lines of this peptide: 148
[3]
  normalised SPOT signal, Boehringer light units (BLU); mean over the file's lines of this peptide: 2.4
[4]
  normalised SPOT signal, Boehringer light units (BLU); mean over the file's lines of this peptide: 64.4
[5]
  normalised SPOT signal, Boehringer light units (BLU); mean over the file's lines of this peptide: 61.8
[6]
  normalised SPOT signal, Boehringer light units (BLU); mean over the file's lines of this peptide: 46.4
[7]
  normalised SPOT signal, Boehringer light units (BLU); mean over the file's lines of this peptide: 172

## HFNTKKIPELPSQF [YML051W 376-389]
[1]
  normalised SPOT signal, Boehringer light units (BLU); mean over the file's lines of this peptide: 118
[2]
  normalised SPOT signal, Boehringer light units (BLU); mean over the file's lines of this peptide: 204
[3]
  normalised SPOT signal, Boehringer light units (BLU); mean over the file's lines of this peptide: 35.7
[4]
  normalised SPOT signal, Boehringer light units (BLU); mean over the file's lines of this peptide: 1960
[5]
  normalised SPOT signal, Boehringer light units (BLU); mean over the file's lines of this peptide: 4.9
[6]
  normalised SPOT signal, Boehringer light units (BLU); mean over the file's lines of this peptide: 235
[7]
  normalised SPOT signal, Boehringer light units (BLU); mean over the file's lines of this peptide: 467

## GTTNRGPPPLPPRA [YLR144C 18-31]
[1]
  normalised SPOT signal, Boehringer light units (BLU); mean over the file's lines of this peptide: 49900
[2]
  normalised SPOT signal, Boehringer light units (BLU); mean over the file's lines of this peptide: 43600
[3]
  normalised SPOT signal, Boehringer light units (BLU); mean over the file's lines of this peptide: 30.6
[4]
  normalised SPOT signal, Boehringer light units (BLU); mean over the file's lines of this peptide: 626
[5]
  normalised SPOT signal, Boehringer light units (BLU); mean over the file's lines of this peptide: 69100
[6]
  normalised SPOT signal, Boehringer light units (BLU); mean over the file's lines of this peptide: 88000
[7]
  normalised SPOT signal, Boehringer light units (BLU); mean over the file's lines of this peptide: 39900

## HELVKSDPHFPYGT [YDL117W 838-851]
[1]
  normalised SPOT signal, Boehringer light units (BLU); mean over the file's lines of this peptide: 37.2
[2]
  normalised SPOT signal, Boehringer light units (BLU); mean over the file's lines of this peptide: 2.5
[3]
  normalised SPOT signal, Boehringer light units (BLU); mean over the file's lines of this peptide: 32.3
[4]
  normalised SPOT signal, Boehringer light units (BLU); mean over the file's lines of this peptide: 11.7
[5]
  normalised SPOT signal, Boehringer light units (BLU); mean over the file's lines of this peptide: 17
[6]
  normalised SPOT signal, Boehringer light units (BLU); mean over the file's lines of this peptide: 29.9
[7]
  normalised SPOT signal, Boehringer light units (BLU); mean over the file's lines of this peptide: 229

## HFPSRSQPSDPKLQ [YKR028W 906-919]
[1]
  normalised SPOT signal, Boehringer light units (BLU); mean over the file's lines of this peptide: 91.5
[2]
  normalised SPOT signal, Boehringer light units (BLU); mean over the file's lines of this peptide: 294
[3]
  normalised SPOT signal, Boehringer light units (BLU); mean over the file's lines of this peptide: 17.7
[4]
  normalised SPOT signal, Boehringer light units (BLU); mean over the file's lines of this peptide: 321
[5]
  normalised SPOT signal, Boehringer light units (BLU); mean over the file's lines of this peptide: 32.6
[6]
  normalised SPOT signal, Boehringer light units (BLU); mean over the file's lines of this peptide: 68.1
[7]
  normalised SPOT signal, Boehringer light units (BLU); mean over the file's lines of this peptide: 258

## GYDEKGNPIPPNNW [YJL216C 137-150]
[1]
  normalised SPOT signal, Boehringer light units (BLU); mean over the file's lines of this peptide: 70
[2]
  normalised SPOT signal, Boehringer light units (BLU); mean over the file's lines of this peptide: 0
[3]
  normalised SPOT signal, Boehringer light units (BLU); mean over the file's lines of this peptide: 33.1
[4]
  normalised SPOT signal, Boehringer light units (BLU); mean over the file's lines of this peptide: 66.3
[5]
  normalised SPOT signal, Boehringer light units (BLU); mean over the file's lines of this peptide: 9.3
[6]
  normalised SPOT signal, Boehringer light units (BLU); mean over the file's lines of this peptide: 46.1
[7]
  normalised SPOT signal, Boehringer light units (BLU); mean over the file's lines of this peptide: 96
